# Test results from patent publication US20150274820A1 (ESBATECH AN ALCON BIOMEDICAL RESEARCH UNIT, published 2015).
# Positions count from the first letter of the chain named. Numbers in names are those of the source.
# T1: recombinant human VEGF110 (human, UniProt P15692-4 27-136, limits assumed)
# T1 construct: Made in house; also called hVEGF110
# T1 sequence (looked up): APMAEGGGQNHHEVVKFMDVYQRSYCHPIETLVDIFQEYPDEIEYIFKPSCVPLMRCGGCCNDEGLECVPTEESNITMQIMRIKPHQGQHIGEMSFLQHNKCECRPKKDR
# T2: recombinant human VEGF121 (human, UniProt P15692 27-147)
# T2 construct: mature; Isoform VEGF121 of the entry; also called hVEGF121
# T2 sequence (looked up): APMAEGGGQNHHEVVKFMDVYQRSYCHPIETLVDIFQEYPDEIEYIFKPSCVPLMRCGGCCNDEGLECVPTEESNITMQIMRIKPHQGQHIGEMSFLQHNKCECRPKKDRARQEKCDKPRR
# T3: recombinant human PLGF (human, UniProt P49763-2 19-149, limits assumed)
# T3 construct: Negative control; also called PIGF
# T3 sequence (looked up): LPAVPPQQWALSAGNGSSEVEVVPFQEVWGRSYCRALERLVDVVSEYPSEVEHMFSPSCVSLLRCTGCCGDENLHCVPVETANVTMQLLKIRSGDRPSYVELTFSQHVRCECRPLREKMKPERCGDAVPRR
# B1: 578min_max T84N_V89L (scFv)
# scFv: EIVMTQSPSTLSASVGDRVIITCQASEIIHSWLAWYQQKPGKAPKLLIYLASTLASGVPSRFSGSGSGAEFTLTISSLQPDDFATYYCQNVYLASTNGANFGQGTKLTVLGGGGGSGGGGSGGGGSGGGGSEVQLVESGGGLVQPGGSLRLSCTASGFSLTDYYYMTWVRQAPGKGLEWVGFIDPDDDPYYATWAKGRFTISRDNSKNTLYLQMNSLRAEDTAVYYCAGGDHNSGWGLDIWGQGTLVTVSS
# notes: the VH entry already carries T84N and V89L; tied by name; also called Protein No. 1008
# B2: 578min_max T84N_V89L_DHP (scFv)
# scFv: B1 scFv with L142S, V224T, L246T
# B3: 578minmax FW1.4_DHP (scFv)
# scFv: B1 scFv with L142S, N205T, L210V, V224T, L246T
# notes: tied by name only
# B4: 509-max (scFv)
# scFv: EIVMTQSPSTLSASVGDRVIITCQASQNIRIWLSWYQQKPGKAPKLLIYKASTLESGVPSRFSGSGSGTEFTLTISSLQPDDFATYYCQNNAHYSTNGGTFGQGTKLTVLGGGGGSGGGGSGGGGSGGGGSEVQLVESGGGLVQPGGSLRLSCTASGFSLSSYYMCWVRQAPGKGLEWVGCLDYVGDTDYASWAKGRFTISKDASKNTVYLQMNSLRAEDTAVYYCARTDDSRGWGLNIWGQGTLVTVSS
# notes: VL and VH tied by name; also called Protein Nr; 855
# B5: 509-min (scFv)
# scFv: B4 scFv with T69A, T154A, G180S, K202R, A204N, V209L, R228K
# notes: VL and VH tied by name; also called Protein Nr; 854
# B6: 435-max (scFv)
# scFv: EIVMTQSPSTLSASVGDRVIITCQASQSIGSSLAWYQQKPGKAPKLLIYTAANLASGVPSRFSGSRSGAEFTLTISSLQPDDFATYYCQNFATSDTVTFGQGTKLTVLGGGGGSGGGGSGGGGSGGGGSEVQLVESGGGLVQPGGSLRLSCKASGFSLNTNYWMCWVRQAPGKGLEWVGCMYTGSYNRAYYASWAKGRFTSSKDTSKNTVYLQMNSLRAEDTAVYYCAKGSNWYSDLWGQGTLVTVSS
# notes: the scFv entry is used; also called Protein Nr; 945
# B7: 567-min (scFv)
# scFv: EIVMTQSPSTLSASVGDRVIITCQADQSIYIWLSWYQQKPGKAPKLLIYKASTLESGVPSRFSGSGSGAEFTLTISSLQPDDFATYYCQNNAHYSTNGGTFGQGTKLTVLGGGGGSGGGGSGGGGSGGGGSEVQLVESGGGLVQPGGSLRLSCAASGFSLSDYYMCWVRQAPGKGLEWVSCLDYFGSTDDASWAKGRFTISRDNSKNTLYLQMNSLRAEDTAVYYCAKTDDSRGWGLNIWGQGTLVTVSS
# notes: also called Protein Nr; 884
# B8: 567-max (scFv)
# scFv: B7 scFv with A69T, E70Q, A154S, A155V, S180G, R202K, N204T, L209V, K228R
# notes: VL and VH tied by name; also called Protein Nr; 874
# Target: recombinant rat VEGF164 (rat) (UniProt P16612)
# Assay: Biacore SPR; ratio to hVEGF165
relative value KdhVEGF165/KdmVEGF164 (rat block),relative value kdhVEGF165/kdmVEGF164 (rat block),Binder
0.8,1.2,B1
1.5,1.6,B2
0.7,0.6,B3

# Target: recombinant murine VEGF164 (mouse) (UniProt Q00731)
# Assay: Biacore SPR; ratio to hVEGF165
relative value KdhVEGF165/KdmVEGF164,relative value kdhVEGF165/kdmVEGF164,Binder
1,1,B1
1.8,1.4,B2
0.9,0.6,B3

# Target: T4, recombinant human VEGF165 (human, UniProt P15692 27-191)
# T4 construct: mature; Isoform VEGF165 of the entry; also called hVEGF165; hVEGF
# Assay: VEGFR1/Fc competition ELISA on coated hVEGF165; ratio to Lucentis
# Method: After 30-60 min of incubation at room temperature, the mixtures were transferred to the human VEGF₁₆₅ immobilized plate and incubated for 90 min. […] Optical density at 450 nm (OD 450 nm) was measured using a Sunrise microplate reader (Tecan). Data were analyzed as above, and EC₅₀ values were calculated from the dose-response curves of the scFvs.
# T4 sequence (P15692 other isoform, or with tags, fused parts or gaps): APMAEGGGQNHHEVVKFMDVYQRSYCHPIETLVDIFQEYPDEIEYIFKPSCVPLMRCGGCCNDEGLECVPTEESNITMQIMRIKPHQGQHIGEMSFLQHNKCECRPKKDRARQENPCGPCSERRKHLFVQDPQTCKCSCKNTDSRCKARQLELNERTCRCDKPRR
row,Rel. activity hVEGR1 comp. ELISA (EC50Luc[nM]/EC50test[nM]),Binder
1,13,B4
2,2.9,B5
3,0.00039,B6

# Target: recombinant rat VEGF164 (rat) (UniProt P16612)
# Assay: Biacore SPR, VEGF immobilized, pH 5
koff,kon,Kd,Binder
0.00048 s⁻¹,1.72e+06 M⁻¹ s⁻¹,,B7
0.00645 s⁻¹,3.9e+06 M⁻¹ s⁻¹,,B4
0.000844 s⁻¹,351000 M⁻¹ s⁻¹,,B5
0.000203 s⁻¹,1.36e+06 M⁻¹ s⁻¹,,B8
0.00152 s⁻¹,802000 M⁻¹ s⁻¹,1.89 nM,B1
0.0019 s⁻¹,1.04e+06 M⁻¹ s⁻¹,1.82 nM,B2
0.000676 s⁻¹,800000 M⁻¹ s⁻¹,0.845 nM,B3

# Target: recombinant murine VEGF164 (mouse) (UniProt Q00731)
# Assay: Biacore SPR, VEGF immobilized, pH 5
koff,kon,Kd,Binder
0.00035 s⁻¹,2.06e+06 M⁻¹ s⁻¹,,B7
0.0059 s⁻¹,4.09e+06 M⁻¹ s⁻¹,,B4
0.001 s⁻¹,614000 M⁻¹ s⁻¹,,B5
0.000152 s⁻¹,1.64e+06 M⁻¹ s⁻¹,,B8
0.00188 s⁻¹,1.23e+06 M⁻¹ s⁻¹,1.53 nM,B1
0.00216 s⁻¹,1.47e+06 M⁻¹ s⁻¹,1.46 nM,B2
0.000669 s⁻¹,1.1e+06 M⁻¹ s⁻¹,0.608 nM,B3

# Target: T4, recombinant human VEGF165
# Assay: Biacore SPR, VEGF immobilized, pH 5
# Method: (§1) In this example, the Biacore-binding ability of scFvs was tested and the binding affinity was measured using the exemplary surface plasmon resonance method with BIAcore™-T100. The VEGF proteins, tested for binding by these scFv candidates, in this example and later examples include purified Escherichia coli-expressed recombinant human VEGF₁₆₅ (PeproTech EC Ltd.), recombinant human VEGF₁₂₁ (PeproTech EC Ltd.), recombinant human VEGF₁₁₀ (ESBATech AG), recombinant murine VEGF₁₆₄ (PeproTech EC Ltd.), recombinant rat VEGF₁₆₄ (Biovision), recombinant rabbit VEGF₁₁₀ (ESBATech AG), and recombinant human PLGF (PeproTech EC Ltd.). For the surface plasmon resonance experiment, carboxymethylated dextran biosensor chips (CM4, GE Healthcare) were activated with N-ethyl-N′-(3-dimethylaminopropyl) carbodiimide hydrochloride and N-hydroxysuccinimide according to the supplier's instructions. Each of the 6 different VEGF forms, as exemplified above, was coupled to 1 of the 4 different flow cells on a CM4 sensor chip using a standard amine-coupling procedure. […] The 4th flow cell of each chip was treated similarly except no proteins were immobilized prior to blocking, and the flow cell was used as in-line reference. […] Dissociation of the anti-VEGF scFv from the VEGF on the CM4 chip was allowed to proceed for 10 min at 25° C. Sensorgrams were generated for each anti-VEGF scFv sample after in-line reference cell correction followed by buffer sample subtraction. The apparent dissociation rate constant (kd), the apparent association rate constant (kₐ) and the apparent dissociation equilibrium constant (KD) were calculated using one-to-one Langmuir binding model with BIAcore T100 evaluation Software version 1.1.
koff,kon,Binder
0.000461 s⁻¹,2.01e+06 M⁻¹ s⁻¹,B7
0.00272 s⁻¹,2.26e+06 M⁻¹ s⁻¹,B4
0.00114 s⁻¹,623000 M⁻¹ s⁻¹,B5
0.000226 s⁻¹,1.2e+06 M⁻¹ s⁻¹,B8

# Target: T1, recombinant human VEGF110
# Assay: Biacore SPR, VEGF immobilized, pH 5
# Method: as §1
koff,kon,Binder
3.82e-05 s⁻¹,1.52e+06 M⁻¹ s⁻¹,B7
0.000235 s⁻¹,648000 M⁻¹ s⁻¹,B4
0.000474 s⁻¹,287000 M⁻¹ s⁻¹,B5
3.27e-05 s⁻¹,1e+06 M⁻¹ s⁻¹,B8

# Target: T2, recombinant human VEGF121
# Assay: Biacore SPR, VEGF immobilized, pH 5
# Method: as §1
koff,kon,Binder
4.54e-05 s⁻¹,1.89e+06 M⁻¹ s⁻¹,B7
0.000249 s⁻¹,742000 M⁻¹ s⁻¹,B4
0.000453 s⁻¹,354000 M⁻¹ s⁻¹,B5
5.76e-05 s⁻¹,1.13e+06 M⁻¹ s⁻¹,B8

# Target: T3, recombinant human PLGF
# Assay: Biacore SPR, PlGF immobilized, pH 5
# Method: as §1
row,binding result,Binder
1,no binding,B7
2,no binding,B4
3,no binding,B5
4,no binding,B8

# Target: T4, recombinant human VEGF165
# Assay: Biacore SPR, VEGF immobilized, pH 7.4
# Method: as §1
koff,kon,Binder
0.0007 s⁻¹,1.11e+06 M⁻¹ s⁻¹,B7
0.000537 s⁻¹,1.42e+06 M⁻¹ s⁻¹,B4
0.0108 s⁻¹,3.52e+06 M⁻¹ s⁻¹,B5
0.000167 s⁻¹,1.17e+06 M⁻¹ s⁻¹,B8
0.000104 s⁻¹,1.13e+06 M⁻¹ s⁻¹,B6

# Target: T4, recombinant human VEGF165
# Assay: Biacore SPR, VEGF immobilized, pH 5
# Remark: another data set of the same source
# Method: as §1
koff,kon,Binder
0.000461 s⁻¹,2.01e+06 M⁻¹ s⁻¹,B7
0.00272 s⁻¹,2.26e+06 M⁻¹ s⁻¹,B4
0.00114 s⁻¹,623000 M⁻¹ s⁻¹,B5
0.000226 s⁻¹,1.2e+06 M⁻¹ s⁻¹,B8
0.000755 s⁻¹,167000 M⁻¹ s⁻¹,B6

# Target: T4, recombinant human VEGF165
# Assay: cell-based or functional assay
row,Rel. activity in HUVEC assay (EC50Luc[nM]/EC50test[nM]),Binder
1,0.003,B4
2,0.0086,B8

# Target: T4, recombinant human VEGF165
# Assay: Biacore SPR, VEGF immobilized, pH 5
# Remark: another data set of the same source
# Method: as §1, with “1.1. […]” for “1.1.”
Kd,koff,kon,Binder
1.59 nM,0.0018 s⁻¹,1.13e+06 M⁻¹ s⁻¹,B1
0.576 nM,0.000409 s⁻¹,711000 M⁻¹ s⁻¹,B3
